Experimental data as given in publication PMC9585082, “Structural insight into the ligand binding mechanism of aryl hydrocarbon receptor” (Nature Communications, 2022).

T1: 6xHis-SUMO-tagged dAHR PAS-B Y305A (Drosophila melanogaster, UniProt O61543 264-381, Y305A)
T1 construct: Aryl hydrocarbon receptor homolog spineless (dAHR), Drosophila melanogaster, UniProt O61543, PAS-B domain aa 264-381; source: E. coli Rosetta (DE3), purified as the WT protein; fusion tag retained
T1 sequence (looked up): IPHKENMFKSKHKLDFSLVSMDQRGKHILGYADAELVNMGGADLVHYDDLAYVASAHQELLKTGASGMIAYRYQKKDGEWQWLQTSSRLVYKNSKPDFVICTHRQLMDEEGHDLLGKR

T2: 6xHis-SUMO-tagged dAHR PAS-B Y310A (Drosophila melanogaster, UniProt O61543 264-381, Y310A)
T2 construct: Aryl hydrocarbon receptor homolog spineless (dAHR), Drosophila melanogaster, UniProt O61543, PAS-B domain aa 264-381; source: E. coli Rosetta (DE3), purified as the WT protein; fusion tag retained
T2 sequence (looked up): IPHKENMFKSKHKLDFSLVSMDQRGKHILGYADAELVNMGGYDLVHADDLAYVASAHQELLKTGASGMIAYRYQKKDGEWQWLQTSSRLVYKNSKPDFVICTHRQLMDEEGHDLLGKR

T3: 6xHis-SUMO-tagged dAHR PAS-B (wild type) (Drosophila melanogaster, UniProt O61543 264-381)
T3 construct: Aryl hydrocarbon receptor homolog spineless (dAHR), Drosophila melanogaster, UniProt O61543, PAS-B domain aa 264-381; The printed name '6xHis-SUMO-dAHR PAS-B' puts the tag first; the end is not otherwise stated; also called 6xHis-SUMO-dAHR PAS-B; WT protein; source: E. coli Rosetta (DE3), purified; fusion tag retained
T3 sequence (looked up): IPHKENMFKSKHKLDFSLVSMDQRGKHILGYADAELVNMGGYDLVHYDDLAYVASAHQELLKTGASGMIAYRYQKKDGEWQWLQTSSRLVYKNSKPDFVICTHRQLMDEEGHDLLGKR

T4: 6xHis-tagged dAHR PAS-B, Red-labeled (Drosophila melanogaster, UniProt O61543 264-381, labeled with the MO Red-Tris-NTA protein labeling kit)
T4 construct: Aryl hydrocarbon receptor homolog spineless (dAHR), Drosophila melanogaster, UniProt O61543, PAS-B domain aa 264-381; the only His-tagged dAHR PAS-B construct it describes is the 6xHis-SUMO fusion (pET-28s), so SUMO may also have been present; also called Red-labeled dAHR PAS-B; source: purified; E. coli Rosetta (DE3) is the host named for pET-28s-dAHR PAS-B
T4 sequence (looked up): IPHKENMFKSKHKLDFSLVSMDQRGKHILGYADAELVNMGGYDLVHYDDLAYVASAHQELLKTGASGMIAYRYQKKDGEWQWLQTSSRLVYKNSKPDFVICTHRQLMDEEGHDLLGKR


Legend:
Settings in all cases: both partners purified
[1] = biological target: T1, 6xHis-SUMO-tagged dAHR PAS-B Y305A; assay: ELISA; 100 nM 6xHis-SUMO-dAHR PAS-B (WT or mutants) coated on plates; GST-mARNT PAS-B 0.004-10 µM added, 1 h room temperature; anti-GST detection; four-parameter 'log(agonist) vs response' fit
[2] = biological target: T2, 6xHis-SUMO-tagged dAHR PAS-B Y310A; assay: as above
[3] = biological target: T3, 6xHis-SUMO-tagged dAHR PAS-B (wild type); assay: as above
[4] = biological target: T4, 6xHis-tagged dAHR PAS-B, Red-labeled; assay: MST; 50 nM Red-labeled 6xHis-dAHR PAS-B; mARNT PAS-B 100 µM to 3 nM; PBS, 0.05% Tween-20, 2.5% DMSO, 0.5 mM TCEP; without αNF
[5] = biological target: T4, 6xHis-tagged dAHR PAS-B, Red-labeled; assay: MST; 50 nM Red-labeled 6xHis-dAHR PAS-B; mARNT PAS-B 100 µM to 3 nM; PBS, 0.05% Tween-20, 2.5% DMSO, 0.5 mM TCEP; with 1 µM αNF

Kd [1] | Kd [2] | Kd [3] | Kd [4] | Kd [5] | Binder
1800 nM | 500 nM | ~380 nM |  |  | GST-tagged mARNT PAS-B (domain or fragment, Aryl hydrocarbon receptor nuclear translocator (ARNT), mouse, PAS-B domain aa 360-465; GST retained for ELISA; also called GST-fused recombinant mARNT PAS-B; source: pGEX-6P-1 construct, purified) not shown
 |  |  | 300 nM | ~250 nM | mouse ARNT PAS-B domain (aa 360-465), fusion tag removed (domain or fragment, Aryl hydrocarbon receptor nuclear translocator (ARNT), mouse, PAS-B domain aa 360-465; Subcloned into pET-28s 'similarly' to the AHR PAS-B domains; tag removed with ULP1; also called mARNT PAS-B) not shown
